Measurements as given in PMC11570694.

What was measured:
[1] = molecular target: endogenous TTC5 of rabbit reticulocyte lysate (rabbit (endogenous in rabbit reticulocyte lysate)) (UniProt G1SNQ6); assay: cross-linking; competition: porcine brain tubulin at the indicated concentrations added to isolated β-tubulin 94-mer RNCs (Bpa at position 7) carrying endogenous TTC5, 10 min on ice in PSB, then UV; autoradiography, anti-TTC5 immunoprecipitation
[2] = molecular target: recombinant TTC5 labelled with Oregon Green 488 maleimide (human) (UniProt Q8N0Z6); assay: MST; 50 nM Oregon Green 488-labelled TTC5 with various porcine tubulin concentrations in 250 mM NaCl, 1 mM TCEP, 20 mM HEPES pH 7.4; duplicates
Sequence of recombinant TTC5 labelled with Oregon Green 488 maleimide (human) (Q8N0Z6 whole entry): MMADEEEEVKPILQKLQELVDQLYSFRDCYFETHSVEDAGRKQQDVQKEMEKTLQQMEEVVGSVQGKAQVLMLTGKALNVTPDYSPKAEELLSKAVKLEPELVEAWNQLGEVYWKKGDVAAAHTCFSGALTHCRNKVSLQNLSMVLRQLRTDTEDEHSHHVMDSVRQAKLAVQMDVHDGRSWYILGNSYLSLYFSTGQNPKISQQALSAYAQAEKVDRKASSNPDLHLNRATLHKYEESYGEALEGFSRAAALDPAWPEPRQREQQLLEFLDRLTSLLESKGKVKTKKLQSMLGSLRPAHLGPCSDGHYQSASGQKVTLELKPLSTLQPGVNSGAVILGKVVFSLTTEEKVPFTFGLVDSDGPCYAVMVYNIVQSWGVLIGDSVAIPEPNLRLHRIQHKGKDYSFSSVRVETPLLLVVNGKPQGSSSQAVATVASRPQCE

Sequence of endogenous TTC5 of rabbit reticulocyte lysate (rabbit (endogenous in rabbit reticulocyte lysate)) (G1SNQ6 entry or part of it): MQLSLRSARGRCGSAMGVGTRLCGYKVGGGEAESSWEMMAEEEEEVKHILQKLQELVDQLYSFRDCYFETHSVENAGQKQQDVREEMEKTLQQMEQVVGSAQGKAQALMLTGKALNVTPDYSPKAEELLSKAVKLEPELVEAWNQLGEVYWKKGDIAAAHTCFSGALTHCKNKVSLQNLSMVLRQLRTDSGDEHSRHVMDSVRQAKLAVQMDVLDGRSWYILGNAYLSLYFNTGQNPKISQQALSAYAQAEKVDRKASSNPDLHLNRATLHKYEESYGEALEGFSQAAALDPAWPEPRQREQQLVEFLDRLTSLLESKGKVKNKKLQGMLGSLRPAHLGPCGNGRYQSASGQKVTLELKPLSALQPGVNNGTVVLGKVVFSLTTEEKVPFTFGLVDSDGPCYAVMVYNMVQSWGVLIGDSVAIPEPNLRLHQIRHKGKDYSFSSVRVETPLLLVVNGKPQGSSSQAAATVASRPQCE

Ki [1]: 500 nM | Kd [2]: 500 nM
Substance: porcine brain αβ-tubulins (from UniProt P02550 1-451; Q767L7 1-444) (complex)
